Data reported in patent US20060287501A1 (Pieris, published 2006).
Where a chain is given by its changes, count along the chain named. Numbers in names are those of the source.

Legend:
[1] = biological target: T1, recombinant Nogo-A fragment NI-Fr4 (rat, UniProt Q9JK11 233-941); assay: SPR (Biacore X); NI-Fr4 on Ni/NTA chip via His6, Fab (pASK107, Strep-tag II) at 0.25-6.8 µM, equilibrium fit
T1 construct: Truncated rat Nogo-A with N-terminal Strep-tag II and C-terminal His6
T1 sequence: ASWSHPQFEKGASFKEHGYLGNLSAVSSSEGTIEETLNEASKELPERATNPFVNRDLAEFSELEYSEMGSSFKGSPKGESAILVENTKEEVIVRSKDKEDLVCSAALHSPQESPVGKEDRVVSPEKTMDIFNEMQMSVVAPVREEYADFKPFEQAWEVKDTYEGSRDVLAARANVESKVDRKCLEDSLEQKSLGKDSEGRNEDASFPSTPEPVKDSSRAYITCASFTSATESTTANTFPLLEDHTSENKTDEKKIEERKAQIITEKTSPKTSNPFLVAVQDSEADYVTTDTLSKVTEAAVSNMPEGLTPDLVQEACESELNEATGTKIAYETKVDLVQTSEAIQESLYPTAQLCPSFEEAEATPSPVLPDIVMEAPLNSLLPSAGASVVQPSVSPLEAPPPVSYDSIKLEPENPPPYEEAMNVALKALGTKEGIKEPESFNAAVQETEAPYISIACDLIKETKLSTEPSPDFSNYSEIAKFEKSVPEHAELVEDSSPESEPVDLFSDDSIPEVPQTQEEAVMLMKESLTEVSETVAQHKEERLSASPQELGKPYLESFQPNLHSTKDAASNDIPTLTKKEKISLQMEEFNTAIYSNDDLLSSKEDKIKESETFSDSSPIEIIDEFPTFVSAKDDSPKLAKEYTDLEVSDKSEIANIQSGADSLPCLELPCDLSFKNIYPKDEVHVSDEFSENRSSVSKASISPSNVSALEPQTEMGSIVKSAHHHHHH
Method: (§1) The thermodynamic affinity for the recombinant Nogo-A fragment NI-Fr4 was determined both for the II.1.8 mutant and for the wild-type IN-1 Fab fragment using the method of real time surface plasmon resonance (SPR) on a Biacore-X® system equipped with an Ni/NTA-derivatized sensor chip® (Biacore AB, Uppsala, Sweden). PBS containing 0.005% (v/v) surfactant P20 was used as continuous flow buffer as well as for dilution of proteins. Analysis was performed at 25° C. using a flow rate of 35 μl/min.
(§2) Then the Fab fragment (produced by means of the vector pASK107 and purified via the Strep-tag II; see Example 1)) was injected at a defined concentration (between 0.25 and 6.8 μM) for 2 minutes, followed by buffer flow for 4 minutes. The chip surface was regenerated using 70 μl 0.35 M EDTA, pH 8.0 in flow buffer prior to the next measurement. Each time-dependent binding isotherm of the Fab fragment was corrected for the background signal that was detected in the flow channel without NI-Fr4 using BIAevaluation software (Version 3.0). Resonance unit values for the bound Fab fragment at equilibrium for each applied concentration were then deduced and fitted (Voss and Skerra, supra) by non-linear least squares regression using an equation of the type y=a*x/(b+x). […]

[2] = biological target: T2, mutant of NI-Fr2 devoid of Cys^574 and Cys^676 (rat, UniProt Q9JK11 233-940, labelled with digoxigenin in the colony screening assay); assay: filter-sandwich colony screening assay; Fab-ABD (pASK106) captured on HSA membrane, labelled NI-Fr2 mutant (no Cys574, Cys676) at 30 µg/ml
T2 sequence: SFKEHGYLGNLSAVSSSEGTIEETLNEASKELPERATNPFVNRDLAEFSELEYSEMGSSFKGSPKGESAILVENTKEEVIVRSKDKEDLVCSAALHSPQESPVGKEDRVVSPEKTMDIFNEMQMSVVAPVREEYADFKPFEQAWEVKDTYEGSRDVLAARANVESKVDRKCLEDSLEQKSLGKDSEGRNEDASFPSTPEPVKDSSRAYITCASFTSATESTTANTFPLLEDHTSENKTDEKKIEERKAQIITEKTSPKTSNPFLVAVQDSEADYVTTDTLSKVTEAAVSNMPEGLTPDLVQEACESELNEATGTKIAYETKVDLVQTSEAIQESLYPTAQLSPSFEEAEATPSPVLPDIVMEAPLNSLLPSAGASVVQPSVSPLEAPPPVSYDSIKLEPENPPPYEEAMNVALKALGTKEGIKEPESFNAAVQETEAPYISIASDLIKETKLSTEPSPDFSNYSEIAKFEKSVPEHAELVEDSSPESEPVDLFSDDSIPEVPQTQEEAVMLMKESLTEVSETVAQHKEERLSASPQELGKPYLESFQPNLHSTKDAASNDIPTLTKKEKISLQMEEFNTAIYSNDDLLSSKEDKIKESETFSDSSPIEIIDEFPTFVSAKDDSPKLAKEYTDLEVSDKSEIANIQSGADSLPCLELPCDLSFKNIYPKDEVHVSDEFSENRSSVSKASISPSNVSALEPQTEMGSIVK
Method: The first membrane, carrying tiny colonies of the transformed cells, was then placed onto the second (hydrophobic) membrane. The filter sandwich was incubated for 16 h at 22° C. During this period the mutated IN-1 Fab fragments became secreted—and partially released from the colonies by leakage from the bacterial periplasm—and finally immobilized on the lower membrane via complex formation between HSA and ABD.
The first membrane with the still viable colonies was transferred to a fresh LB/Amp agar plate and stored at 4° C. The second membrane was washed three times in PBS containing 0.1% (v/v) Tween 20 (PBS/T) and the immobilized Fab fragments, each in a spot 30 corresponding to the position of the original colony, were probed for antigen binding. To this end recombinant Nogo-A fragment NI-FR2 was labeled at a molar ratio of 5:1 with digoxigenin-3-O-methylcarbonyl-e-aminocaproic acid N-hydroxy-succinimide ester (Roche Diagnostics, Mannheim, Germany) and applied to the membrane for one hour at a concentration of 30 or 50 μg/ml in PBS/T. After washing three times with PBS/T the membrane was incubated for one hour with 0.75 u/ml anti-digoxigenin Fab fragment conjugated with alkaline phosphatase (Roche Diagnostics) in 10 ml PBS/T. The membrane was finally washed twice with PBS/T and twice with PBS and the signals were developed using standard chromogenic substrates as described (Schlehuber et al., supra). Colonies corresponding to signals with an intensity above average were identified, recovered from the first membrane, and propagated for further analysis of their recombinant gene product.
CDR-L3 forms a connecting loop between two neighboring beta-strands such that the positions L91 and L92 are in close spatial proximity with L96. […] This time the stringency of selection was raised by lowering the concentration of the recombinant antigen - a mutant of NI-Fr2 devoid of Cys⁵⁷⁴ and Cys⁶⁷⁶—from 50 μg/ml to 30 μg/ml.

[3] = biological target: T3, BSA (bovine, UniProt P02769 25-607); assay: ELISA; BSA as antigen
T3 construct: Control antigen
T3 sequence (P02769 25-607 limits assumed): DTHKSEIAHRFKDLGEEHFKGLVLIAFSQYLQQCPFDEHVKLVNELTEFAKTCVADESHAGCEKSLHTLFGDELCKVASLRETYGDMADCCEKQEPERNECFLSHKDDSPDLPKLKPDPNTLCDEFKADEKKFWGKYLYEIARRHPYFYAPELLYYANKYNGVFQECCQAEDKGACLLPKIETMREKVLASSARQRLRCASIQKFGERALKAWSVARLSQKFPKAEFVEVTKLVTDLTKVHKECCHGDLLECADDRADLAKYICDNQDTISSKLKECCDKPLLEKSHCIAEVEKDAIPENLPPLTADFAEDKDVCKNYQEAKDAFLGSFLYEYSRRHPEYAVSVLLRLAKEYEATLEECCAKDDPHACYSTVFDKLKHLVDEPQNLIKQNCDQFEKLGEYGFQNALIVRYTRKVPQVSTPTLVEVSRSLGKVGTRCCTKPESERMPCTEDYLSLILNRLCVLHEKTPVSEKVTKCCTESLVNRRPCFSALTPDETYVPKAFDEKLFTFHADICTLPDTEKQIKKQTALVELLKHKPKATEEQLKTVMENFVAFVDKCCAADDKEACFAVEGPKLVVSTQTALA

[4] = biological target: T4, recombinant Nogo-A fragment NI-Fr2 (rat, UniProt Q9JK11 233-941, labelled with digoxigenin (molar ratio 5:1) in the colony screening assay); assay: ELISA, wells coated with NI-Fr2, bound Fab detected with anti-human Ckappa antibody-alkaline phosphatase, delta A405/delta t
T4 construct: Truncated rat Nogo-A with C-terminal Strep-tag, made in the E. coli periplasm; also called MI-Fr2; wild-type NI-Fr2
T4 sequence: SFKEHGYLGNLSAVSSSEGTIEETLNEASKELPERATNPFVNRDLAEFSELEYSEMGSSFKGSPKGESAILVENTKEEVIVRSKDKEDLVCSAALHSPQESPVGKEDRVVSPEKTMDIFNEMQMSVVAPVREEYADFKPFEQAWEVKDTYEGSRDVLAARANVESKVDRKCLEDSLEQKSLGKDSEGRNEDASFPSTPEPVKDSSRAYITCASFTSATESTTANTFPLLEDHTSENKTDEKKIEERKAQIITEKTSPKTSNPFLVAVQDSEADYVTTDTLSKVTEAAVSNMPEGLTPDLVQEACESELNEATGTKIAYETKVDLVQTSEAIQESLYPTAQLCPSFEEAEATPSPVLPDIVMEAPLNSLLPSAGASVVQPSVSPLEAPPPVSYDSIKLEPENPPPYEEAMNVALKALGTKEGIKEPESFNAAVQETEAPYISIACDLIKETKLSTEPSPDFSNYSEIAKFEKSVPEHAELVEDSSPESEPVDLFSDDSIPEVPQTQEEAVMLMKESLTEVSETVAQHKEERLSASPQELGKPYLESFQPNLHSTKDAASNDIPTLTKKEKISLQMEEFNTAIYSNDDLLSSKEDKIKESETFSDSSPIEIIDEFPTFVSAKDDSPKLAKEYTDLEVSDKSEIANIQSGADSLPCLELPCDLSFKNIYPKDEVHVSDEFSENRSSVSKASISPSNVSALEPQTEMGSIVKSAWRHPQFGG
Method: Antigen-binding activity of the mutant Fab fragments was subsequently tested by ELISA using the recombinant NI-Fr2 for coating of the microtitre plate wells (FIG. 2).
ELISA was carried out in a 96 well microtitre plate (Becton Dickinson, Heidelberg, Germany) at ambient temperature with incubation steps of 1 h unless otherwise stated. Three washing steps with PBS/T were used after each incubation, and residual liquid was removed thoroughly. The wells were coated for 4 h with 50 μl of a solution of MI-Fr2 at concentrations between 180 and 200 μg/ml in PBS buffer and then blocked with 200 μl 3% (w/v) BSA, 0.5% (v/v) Tween 20 in PBS. After washing, 50 μl of the purified recombinant Fab fragment was applied at a dilution series in PBS/T. The wells were then incubated with 50 μl anti-human Cκ antibody conjugated with alkaline phosphatase (Sigma), diluted 1:1000 in PBS/T. Signals were finally developed in the presence of p-nitrophenyl phosphate (Voss and Skerra, (1997) Protein Eng., 10, 975-982). Enzymatic activity was measured at 25° C. as the change in absorbance at 405 nm per min with a SpectraMAX 250 instrument (Molecular Devices, Sunnyvale, Calif.). The data were corrected for background values determined in wells that were merely coated with BSA and fitted by non-linear least squares regression as described by Voss and Skerra, supra

[5] = biological target: T4, recombinant Nogo-A fragment NI-Fr2; assay: ELISA; NI-Fr2 coated, purified Fab (pASK88, His6), anti-human Ckappa-AP detection
[6] = biological target: T1, recombinant Nogo-A fragment NI-Fr4; assay: SPR (Biacore X); NI-Fr4 on Ni/NTA chip, equilibrium fit
Method: as §1, §2

B1: recombinant wild-type IN-1 Fab fragment (Fab, V domains shown)
VH: EVKLHESGPGLVRPGTSVKISCKASGYTFTNYWLGWVKQRPGHGLEWIGDIYPGGGYTNYNEKFKGKATLTADTSSSTAYMQLSSLTSEDSAVYFCARFYYGSSYWYFDVWGQGTTVTVSS
VL: DIELTQSPAIMAASVGETVTITCGASENIYGALNWYQRKQGKSPQLLIYGATNLADGMSSRFSGSGSGRQYSLKISSLHPDDVATYYCQNVLSTPRTFGAGTKLEIK
notes: Formats: pASK106 (ABD on light chain) in the colony screen, pASK88 (His6 on heavy chain) in ELISA, staining and neurite assay, pASK107 (Strep-tag II) in SPR; also called IN-1 wt; IN-1 (wild-type) Fab fragment
With B1 the Kd [1] was 7.8 µM.

B2: II.1.7 Fab fragment (Fab, V domains shown)
VH: B1 VH
VL: B1 VL with V91L, L92K, S93R, T94V, R96V
notes: Chimeric Fab, human IgG1/kappa constant domains
B2: binds [2].

B3: I.2.6 Fab fragment (IN-1 mutant) (Fab, V domains shown)
VH: B1 VH
VL: B1 VL with S93R, T94V, R96C
notes: Chimeric Fab, human IgG1/kappa constant domains; also called mutant I.2.6; original I.2.6 Fab fragment
B3: no binding [3]; binds [4].

B4: II.1.3 Fab fragment (Fab, V domains shown)
VH: B1 VH
VL: B1 VL with V91M, L92K, S93R, T94V, R96V
notes: as for B2
B4: binds [2].

B5: I.1.4 Fab fragment (IN-1 mutant) (Fab, V domains shown)
VH: B1 VH
VL: B1 VL with S93P, T94V, R96W
notes: as for B2
B5: binds [5].

B6: I.2.6(L96V) Fab fragment (Fab, V domains shown)
VH: B1 VH
VL: B1 VL with S93R, T94V, R96V
notes: Chimeric Fab, human IgG1/kappa constant domains; also called I.2.6(^L96Val) Fab fragment; replacement Cys^L96->Val
B6: binds [4].

B7: II.1.8 Fab fragment (Fab, V domains shown)
VH: B1 VH
VL: B1 VL with V91I, L92N, S93R, T94V, R96V
notes: also called II.1.8 mutant; antibody fragment II.1.8
With B7 the Kd [1] was 1.04 µM and the “fold improvement of KD over the wild-type IN-1 Fab fragment” value [6] was 8 fold.

B8: II.1.1 Fab fragment (Fab, V domains shown)
VH: B1 VH
VL: B1 VL with V91R, L92K, S93R, T94V, R96V
notes: as for B2
B8: binds [2].
